Measured values reported in article PMC7522779.

Molecular target: Pex14p-S266D, Gal4p fusion protein for yeast two-hybrid (S. cerevisiae) (UniProt P53112)
Experiment: two-hybrid; liquid ß-galactosidase assay with 2-nitrophenyl β-D-galactopyranoside; GAL4 BD and AD fusions in strain PCY2 pex14Δ; triplicate measurements of three independent transformants

Sequence of UniProt P53112 (P53112 whole entry S266D, the tested form may be a part): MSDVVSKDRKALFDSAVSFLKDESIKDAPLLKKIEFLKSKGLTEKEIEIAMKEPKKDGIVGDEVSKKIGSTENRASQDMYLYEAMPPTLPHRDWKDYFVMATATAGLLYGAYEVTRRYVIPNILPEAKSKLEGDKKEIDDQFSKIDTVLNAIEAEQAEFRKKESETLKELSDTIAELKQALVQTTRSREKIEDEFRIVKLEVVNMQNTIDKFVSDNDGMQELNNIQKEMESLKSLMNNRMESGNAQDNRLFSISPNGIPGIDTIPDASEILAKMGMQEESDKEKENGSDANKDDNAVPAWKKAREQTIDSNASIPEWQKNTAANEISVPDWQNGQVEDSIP

- binding as percent of wild-type level (ß-galactosidase activity) (% of wild-type levels): < 50
Substance: Pex13p, Gal4p fusion protein for yeast two-hybrid (from UniProt P80667 1-386) (natural protein)
